This note sets out measurements from patent US20250025506A1 (INNOVATIVE CELLULAR THERAPEUTICS, published 2025).

This assay concerns the target T1, UPK2 antigen on 293T cells (6600, Lenti-UPK2 antigen plasmid) (Homo sapiens (Human), UniProt O00526 85-184).
T1 construct: 293T cells transiently transfected with plasmid 6600 or infected with virus packaged from it; also called UPK2 target cells; 293T cells with UPK2 target
T1 sequence: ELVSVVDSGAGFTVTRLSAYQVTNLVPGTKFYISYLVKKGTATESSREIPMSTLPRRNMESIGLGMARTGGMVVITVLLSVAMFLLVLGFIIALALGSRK
Nature of the assay: flow cytometry, histogram of 293T-6600 cells (293T transiently transfected with plasmid 6600, UPK2-noflag) stained with the antibody; goat-anti-human FITC secondary per paragraph 179. For orientation: In flow cytometry, cells or beads pass a laser one at a time.

B1: S7F9 recombinant anti-UPK2 monoclonal antibody (murine-human chimeric) (antibody, V domains shown)
VH: QVQLKQSGPGLVRPGASVTMSCKASGYTFTSNWMHWVKQRPGQGLDWIGMIDPSNSDTRLNQKFKDKATLNVDKSSNTAYMQLSSLTSDDSAVYYCMRGGGDYWGQGTTLTVSS
VL: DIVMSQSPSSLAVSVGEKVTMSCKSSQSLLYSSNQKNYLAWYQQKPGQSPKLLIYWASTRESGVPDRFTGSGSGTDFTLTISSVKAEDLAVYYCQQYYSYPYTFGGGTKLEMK
B1: the “percent of cells in the positive gate” value was found to be 0.19%.

B2: S3A4 recombinant anti-UPK2 monoclonal antibody (murine-human chimeric) (antibody, V domains shown)
VH: EVKLKQSGAELVKPGASVKLSCKASGYTLTSYYIYWVKQRPGQGLEWIGGISPSNGNTYFTEKFKNMATLTVDKSSNTAYMQLSSLTSEDSAVYYCARNYDYDVGFAYWGQGTLVTVSS
VL: DVVMTQTPLSLPVSLGDQASISCRSSQSIVHSNGNTYLEWYLQKPGQSPKLLIYKVSNRFSGVPDRFSGSGSGTDFTLKISRVEAEDLGVYYCFQGSHVPFTFGSGTKLEIK
Take B2: the “percent of cells in the positive gate” value was found to be 27%.

B3: S2B7 recombinant anti-UPK2 monoclonal antibody (murine-human chimeric) (antibody, V domains shown)
VH: EVQLQQSGAELMKPGTSVKMSCKAAGYTFTKYWIGWVKQRPGHGLEWIGDIYPGGGYTLFNEKFKGKATLTADTSSSTAYMQLSSLTSEDSAIYYCARGNYWGQGTTLTVSS
VL: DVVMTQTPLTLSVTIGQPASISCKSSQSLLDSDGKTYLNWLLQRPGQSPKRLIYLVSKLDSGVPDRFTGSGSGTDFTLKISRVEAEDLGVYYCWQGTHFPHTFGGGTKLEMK
Consider B3, for which the “percent of cells in the positive gate” value is 0.06%.

B4: S3D10 recombinant anti-UPK2 monoclonal antibody (murine-human chimeric) (antibody, V domains shown)
VH: QVQLQQSGAELVRSGASVKLSCTDSGFNIKDYYMNWVKQRPEQGLEWIGWIDPENGVTQYDPKFQGKATVTADTFSNTAYLQLSSLTSEDTAVYYCNANYKYDWFGYWGQGTLVTVSA
VL: NIVMTQSPSSLSASLGERVSLTCRASQEISGYLSWLQQKPDGTIKRLIYAASTLDSGVPERFSGSRSGSDYSLTISSLESEDFADYYCLQYASYPWTFGGGTKLEMK
Take B4: the “percent of cells in the positive gate” value worked out at 0.07%.

B5: S7F11 recombinant anti-UPK2 monoclonal antibody (murine-human chimeric) (antibody, V domains shown)
VH: EVQLKESGAELVRSGASVKLSCTASAFNIKDYYMNWMKQRPEQGLEWIGWIDPENGDTKYAPKFQGKATITADTSSSTAYLQLTSLTSEDSAVFYCNVNYKYDWFAYWGQGTLVTVSA
VL: DVVMTQSQKFMSTSVGDRVSVTCKASQNVGTNVAWYQQKPGQSPRALIYSASYRYSGVPDRFTGSGSGTDFTLTISNVQSEDLAEYFCQQYNTYPWTFGGGTKLEIK
In the case of B5, the “percent of cells in the positive gate” value was 0.48%.
